The test system of this series is Immunoglobulin E (IgE), P01854-1. To be noted: 5'-hexylamine coupled Sulfo-SBED (phenyl azide, biotin); 365 nm photo-crosslinking, Western blot; marginal at highest protein concentration only. A general note: In western blotting, separated proteins are transferred to a membrane and probed.
Chain of Immunoglobulin E (IgE), P01854-1 (P01854 other isoform, or with tags, fused parts or gaps): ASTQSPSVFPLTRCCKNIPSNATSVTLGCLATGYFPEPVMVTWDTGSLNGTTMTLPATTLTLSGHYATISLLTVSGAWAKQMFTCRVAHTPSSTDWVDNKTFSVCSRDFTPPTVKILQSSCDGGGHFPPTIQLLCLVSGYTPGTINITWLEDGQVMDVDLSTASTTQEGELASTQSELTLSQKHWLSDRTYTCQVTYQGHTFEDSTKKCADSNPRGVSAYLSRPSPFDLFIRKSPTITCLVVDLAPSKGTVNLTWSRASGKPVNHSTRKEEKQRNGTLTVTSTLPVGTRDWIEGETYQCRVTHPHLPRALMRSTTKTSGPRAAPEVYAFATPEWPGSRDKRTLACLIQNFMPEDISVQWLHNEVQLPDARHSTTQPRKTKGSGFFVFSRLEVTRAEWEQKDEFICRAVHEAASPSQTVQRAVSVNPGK

“CCAGCTGGCTCACCGTTCGCGCTAGGGCTTTCCGTCG [ABAL-D17.4sc]”: the binding signal (fold lower cross-linking than ABAL-D17.4) was determined as 17.

(Values after patent publication US20170059576.)
